The source of these data is patent publication US20120077731A1 (Ablynx, published 2012).

The target of assay [1] is T1, Cyno plasma sIL-6R (cynomolgus monkey, UniProt A0A2K5WN54 60-396).
T1 construct: also called cynomolgus sIL-6R
T1 sequence: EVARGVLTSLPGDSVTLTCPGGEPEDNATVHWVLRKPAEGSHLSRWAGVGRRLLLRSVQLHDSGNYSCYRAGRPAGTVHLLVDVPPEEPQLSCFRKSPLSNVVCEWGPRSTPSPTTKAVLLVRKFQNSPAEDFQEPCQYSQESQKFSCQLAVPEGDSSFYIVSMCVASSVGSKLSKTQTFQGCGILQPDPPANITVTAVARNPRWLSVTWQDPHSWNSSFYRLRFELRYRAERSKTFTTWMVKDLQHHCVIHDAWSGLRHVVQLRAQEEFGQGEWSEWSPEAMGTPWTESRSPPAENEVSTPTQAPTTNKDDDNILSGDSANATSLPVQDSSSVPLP
The experiment in a line: plasma potency ELISA, cyno plasma.

In assay [2] the target is T2, Human plasma sIL-6R (human, UniProt P08887 20-355, limits assumed).
T2 construct: also called plasma-derived human IL-6R
T2 sequence (looked up): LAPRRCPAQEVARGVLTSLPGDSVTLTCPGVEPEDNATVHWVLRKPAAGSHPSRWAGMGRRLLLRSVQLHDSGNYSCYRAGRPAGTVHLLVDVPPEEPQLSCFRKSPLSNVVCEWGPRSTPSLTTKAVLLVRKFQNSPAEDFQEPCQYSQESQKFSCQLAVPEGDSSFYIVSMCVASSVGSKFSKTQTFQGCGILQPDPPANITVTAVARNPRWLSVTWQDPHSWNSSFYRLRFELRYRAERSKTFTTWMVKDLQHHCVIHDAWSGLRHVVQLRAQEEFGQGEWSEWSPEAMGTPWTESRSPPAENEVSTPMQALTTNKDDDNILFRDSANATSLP
Description: plasma potency ELISA, human plasma.

For assay [3], the target named is T2, Human plasma sIL-6R. Description: plasma potency ELISA, human plasma. This is another data set of the same source.
Assay [4] concerns the target T3, Human soluble IL-6R (human, UniProt P08887 20-358).
T3 construct: Soluble recombinant form; biotinylated in some assays; also called hIL-6R; human IL-6R
T3 sequence (looked up): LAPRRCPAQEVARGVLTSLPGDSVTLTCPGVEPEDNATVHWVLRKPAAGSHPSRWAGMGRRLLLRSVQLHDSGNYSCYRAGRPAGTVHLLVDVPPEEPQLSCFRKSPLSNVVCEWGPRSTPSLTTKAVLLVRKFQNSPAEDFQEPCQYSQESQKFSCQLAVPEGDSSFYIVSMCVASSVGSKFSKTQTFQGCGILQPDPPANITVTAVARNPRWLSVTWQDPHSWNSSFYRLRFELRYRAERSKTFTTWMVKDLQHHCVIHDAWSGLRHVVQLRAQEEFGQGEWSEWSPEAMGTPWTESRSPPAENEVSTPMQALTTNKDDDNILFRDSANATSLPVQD
Description: Biacore T100, IL-6R captured by BN-12. On the technique in general: SPR reads the build-up and loss of mass on a sensor chip optically.

A further assay deals with T4, Cyno IL-6R (cynomolgus monkey, UniProt A0A2K5WN54 60-396).
T4 construct: also called cynomolgus monkey IL-6R; recombinant cyno sIL-6R
T4 sequence: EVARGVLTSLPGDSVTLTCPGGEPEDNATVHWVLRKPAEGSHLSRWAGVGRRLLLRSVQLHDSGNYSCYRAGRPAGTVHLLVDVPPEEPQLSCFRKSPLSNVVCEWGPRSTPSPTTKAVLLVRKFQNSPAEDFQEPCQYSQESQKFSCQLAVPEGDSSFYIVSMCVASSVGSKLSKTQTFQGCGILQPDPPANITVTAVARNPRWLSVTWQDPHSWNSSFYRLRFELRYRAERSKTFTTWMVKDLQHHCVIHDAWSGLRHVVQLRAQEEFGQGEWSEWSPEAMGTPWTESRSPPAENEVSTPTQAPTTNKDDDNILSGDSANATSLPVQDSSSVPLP
Description: Biacore T100, IL-6R captured by BN-12.

Assay [5] addresses T3, Human soluble IL-6R. The experiment in a line: Biacore T100, IL-6R covalently coupled.
Assay [6] concerns the target T5, Human membrane IL-6R on cells (human, UniProt P08887 20-468).
T5 construct: whole, on cells; also called cell-surface expressed human IL-6R
T5 sequence (looked up): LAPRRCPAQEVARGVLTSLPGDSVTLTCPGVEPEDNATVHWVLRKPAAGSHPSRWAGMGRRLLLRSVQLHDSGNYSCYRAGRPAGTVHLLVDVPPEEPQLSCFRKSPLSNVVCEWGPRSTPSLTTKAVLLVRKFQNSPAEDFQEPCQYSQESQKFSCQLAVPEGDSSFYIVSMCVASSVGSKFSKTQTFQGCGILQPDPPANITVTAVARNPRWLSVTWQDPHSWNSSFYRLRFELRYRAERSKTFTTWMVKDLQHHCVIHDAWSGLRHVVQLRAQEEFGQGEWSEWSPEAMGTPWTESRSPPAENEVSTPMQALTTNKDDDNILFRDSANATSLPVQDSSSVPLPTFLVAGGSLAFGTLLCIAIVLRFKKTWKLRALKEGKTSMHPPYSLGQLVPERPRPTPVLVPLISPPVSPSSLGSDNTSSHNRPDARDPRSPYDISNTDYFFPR
The experiment in a line: flow cytometry, human PBL, monocytes donor 1.
Description: (§1) The Nanobodies were incubated in EDTA-treated blood from 2 donors and bound Nanobody was detected by flow cytometry. Lymphocytes, monocytes and granulocytes were gated based on FSC/SSC properties (FIG. 40) and bound Nanobodies were detected in the PE channel.

Assay [7] concerns the target T5, Human membrane IL-6R on cells. Description: flow cytometry, human PBL, monocytes donor 2. Background: Flow cytometry measures light scatter and fluorescence of single cells or particles in a stream.
Description: as §1
Assay [8] has the same target. The experiment in a line: flow cytometry, human PBL, lymphocytes donor 1.
Description: as §1
Assay [9] concerns the target T1, Cyno plasma sIL-6R. Description: plasma potency ELISA, human against cyno plasma. For orientation: An ELISA detects its analyte on a solid surface through an enzyme-linked reagent.
The target in assay [10] is T2, Human plasma sIL-6R. Description: plasma potency ELISA, human plasma, high IL-6 (EC95).
Assay [11] concerns the target T2, Human plasma sIL-6R. The experiment in a line: plasma potency assay, human plasma, 42 nM IL6; blocked ligand IL-6.
Description: (§2) All 5 affinity matured Nanobodies and the sequence optimized Nanobody were also tested in a plasma potency assay. […] TMB was used as substrate.
Assay [12] has as its target T2, Human plasma sIL-6R. The experiment in a line: plasma potency assay, human plasma, 2.4 nM IL6; blocked ligand IL-6.
Description: as §2
The target of the next assay is T6, Mouse IL-6R (mouse, UniProt P22272 20-364, limits assumed).
T6 construct: also called mouse sIL-6R
T6 sequence (looked up): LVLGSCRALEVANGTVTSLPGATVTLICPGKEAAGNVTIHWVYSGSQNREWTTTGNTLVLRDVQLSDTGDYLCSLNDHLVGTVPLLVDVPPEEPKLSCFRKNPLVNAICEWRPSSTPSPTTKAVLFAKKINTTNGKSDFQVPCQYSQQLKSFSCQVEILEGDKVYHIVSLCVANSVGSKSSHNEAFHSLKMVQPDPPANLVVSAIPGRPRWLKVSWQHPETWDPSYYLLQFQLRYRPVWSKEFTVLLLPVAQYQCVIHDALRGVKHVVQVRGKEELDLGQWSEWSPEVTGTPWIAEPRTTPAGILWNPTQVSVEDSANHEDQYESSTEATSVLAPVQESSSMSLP
The experiment in a line: competition ELISA: IL6R20A11 (0.4 nM) pre-incubated with a series of recombinant mouse sIL-6R; free IL6R20A11 captured on biotinylated human sIL-6R on neutravidin.

B1: PMP20A11 (VHH)
VHH: EVQLVESGGGLVQPGGSLRLSCAASGSVFKINVMAWYRQAPGKGRELVAGIISGGSTSYADSVKGRFTISRDNAKNTLYLQMNSLRPEDTAVYYCAFITTESDYDLGRRYWGQGTLVTVSS
notes: also called IL6R20A11; IL6R300; not shown: c-myc and (His)6 tags
In the case of B1, the 50% inhibitory concentration (IC50) was 0.117 nM with Cyno plasma sIL-6R [1], 0.198 nM with Human plasma sIL-6R [3], 0.356 nM with Human plasma sIL-6R [10] and 0.09 nM in the assay with Human plasma sIL-6R [12]. Further, the “Ratio (high/low) of IC50” value with Human plasma sIL-6R [2] is 1.8. Besides, the kon with Human soluble IL-6R [4] and with Cyno IL-6R was 1e+06 M⁻¹ s⁻¹ in each case. Besides, the koff with Human soluble IL-6R [5] stood at 1.9e-05 s⁻¹. Further, the EC50 in assay [6] was 3.62 nM; in assay [7], 4.78 nM; in assay [8], 3.65 nM. In the assay with Cyno plasma sIL-6R [9], the “Ratio (human/cyno) of IC50” value came out at 1.69. Besides, in the assay with Human plasma sIL-6R [11], the “IC50 (read off the curve)” value was about 0.4 nM. Further, the binding result in the assay with Mouse IL-6R is “no binding (tested: about 200 ng/mL (log conc 2.3))”.

A word on the IC50: it is the concentration needed to halve the response being measured. Read a high IC50 as weaker potency. A word on the kon: it is the rate constant with which the complex forms. A lower kon goes with slower complex formation. A word on the koff: it is the rate constant with which the complex falls apart. One may read the EC50 as the midpoint of the concentration-response curve. Low readings indicate a more potent agent, high ones a less potent agent.
